Reference: the supplement of paper PMC10724198
± gives the standard deviation of the averaged measurements.

Test system: Saccharomyces cerevisiae
Experiment: protein stability index of tFT-peptide fusion (C-terminal peptide) (PSI (0-1 scale)); higher = more stable (slower turnover)
Settings: genetic background: wild type; temperature: 30 C
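Further: PSI is a weighted mean of sequencing reads over stability bins, variants kept only with over 10 reads, mCherry proximal and sfGFP distal, peptide attached via GGGS linker.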

Sequence	protein stability index
HFPTTSITPIYC	0.601 ± 0.019
LVHDQKFSCNWL	0.74 ± 0.031
KPPCFSPTHHCP	0.713 ± 0.0018
ITIPICTTFHHV	0.731 ± 0.029
PSLLFILPSPLP	0.689 ± 0.015
WTPGTPVFSKGI	0.714 ± 0.035
GVAEGRKVGAST	0.654 ± 0.036
GGFVVGGGGWLG	0.733 ± 0.033
CIKQTNNQNKSN	0.697 ± 0.045
RRREGGQGERGK	0.694 ± 0.087
RETPPALRSFPV	0.613 ± 0.26
AFCFCIFSSFLV	0.535 ± 0.021
GLNVLVWALLSQ	0.548 ± 0.032
PLLLLFLSLFRR	0.63 ± 0.023
KLKNKRKKIRNR	0.71 ± 0.045
LRQEVVRPEWYM	0.66 ± 0.054
QKISEKNISEKN	0.7063 ± 0.0013
VGLLQRSLAFVL	0.612 ± 0.031
YIHQRKGRKPNE	0.622 ± 0.057
MLSWKASWRQPV	0.664 ± 0.021
HPPLRPPLGSRF	0.868 ± 0.045
TKKKTINRTQKQ	0.713 ± 0.043
PGGRTVLCGTVT	0.651 ± 0.0044
DSPPRATFSAPR	0.69 ± 0.036
AWGELGSGVFGL	0.681 ± 0.032
LPVGYVCGLWVG	0.543 ± 0.038

Sequence	protein stability index
AQPFATTGGGLV	0.69 ± 0.24
DVRPVWGMAGSE	0.742 ± 0.12
PPPHIPPPPLSA	0.682 ± 0.025
PPPVLSLPPLPV	0.668 ± 0.028
LVLSGFSLFPVP	0.705 ± 0.034
AGHILSDGTYLP	0.826 ± 0.13
YMAGPAQGRDGS	0.668 ± 0.013
GRGVWEFGGGGG	0.666 ± 0.056
GGGGGGSRVWSA	0.698 ± 0.083
AWGRWGGGSRVE	0.636 ± 0.02
GELGGRSWVERG	0.648 ± 0.099
GAAGASCDCTGG	0.695 ± 0.07
QKRKKQNKDGGT	0.716 ± 0.042
GMGLWCLSGLFP	0.7131 ± 0.0067
SRPLPPSLPPPP	0.756 ± 0.0098
AGESPDLSARCG	0.661 ± 0.11
FVSLVGGFVGTV	0.646 ± 0.037
HSSHPRPHRTLI	0.661 ± 0.012
RTKTQGKKRRQN	0.57 ± 0.032
RRVTTSFWPLGS	0.671 ± 0.067
EKCHVTVVNEMR	0.643 ± 0.074
CLMGTIETRLRC	0.637 ± 0.049
PPPSPRSAPAAS	0.711 ± 0.1
VPLSPPRTPTLY	0.648 ± 0.12
YNANEKTINKDK	0.693 ± 0.063
EALLWWGAWGVV	0.769 ± 0.02

Sequence	protein stability index
PPVPPPSPPRLL	0.673 ± 0.03
GGGGGGGGGAGG	0.674 ± 0.023
VGGRLLFVGKRG	0.669 ± 0.051
FFERRLGYYSRM	0.85 ± 0.09
SLSLFYFRFFPF	0.661 ± 0.05
LNWISKQVTEKH	0.676 ± 0.013
LPPLPPSPPPLP	0.685 ± 0.024
RCLGSTCRFFTF	0.7 ± 0.065
ALFTFFSARLTR	0.748 ± 0.044
VQCRIREELWGG	0.6919 ± 0.0047
ELWRAGEVRGGK	0.713 ± 0.035
GSVGFPDRLLCL	0.73 ± 0.033
SFITFGGWLGGM	0.705 ± 0.14
VSYRLDMHFLYY	0.6062 ± 0.0046
VRLMARFESFLW	0.69 ± 0.023
GALIGNDGHVSG	0.679 ± 0.027
PPLLPPPPAFVF	0.668 ± 0.0069
GPKTFIRSTKEI	0.697 ± 0.03
SGVVSASFVVLD	0.677 ± 0.01
VGICCCKTYCCS	0.656 ± 0.074
RVKNVDAVKKHK	0.635 ± 0.0088
KKNRSRKRRNKK	0.713 ± 0.032
LTARPPTLSSPL	0.6729 ± 0.0043
CRRPPWRFSFPF	0.767 ± 0.021
PLTNPPRSRKSS	0.783 ± 0.12
RPPPPPPPSPHL	0.692 ± 0.041

Sequence	protein stability index
KGMEWEKGYKRL	0.838 ± 0.23
SSIVGRLLSTNT	0.664 ± 0.071
SKLRKGNSIDDR	0.625 ± 0.016
QIQKINTKSKKN	0.699 ± 0.021
ENPVVRSGAVGS	0.698 ± 0.031
TARPPSPPSTRL	0.732 ± 0.036
RSYGVGYEGDKG	0.719 ± 0.054
LPPPPFPPPKPF	0.683 ± 0.0084
NHRANSNPRLRY	0.731 ± 0.0095
KHQNEKKQTNKA	0.623 ± 0.034
RLRPRRNMIDHA	0.724 ± 0.057
PPVLRTPPAPLI	0.681 ± 0.058
EVCAGNFVCSLG	0.708 ± 0.015
FCVVVAIVPLWG	0.512 ± 0.013
PDSAGAALSLSS	0.695 ± 0.027
SPSPPPASPPAP	0.654 ± 0.14
PPHFPPRPRPGP	0.685 ± 0.015
HSAPDLPPLPRV	0.711 ± 0.02
STRTNPSYFTYQ	0.675 ± 0.013
IKHKSKKNNCKK	0.744 ± 0.052
PPRPPRPPYPPP	0.609 ± 0.024
TRWRPPCAPSGS	0.742 ± 0.076
VQYITSGASRWG	0.6309 ± 0.00084
